Biological target: G-CSF receptor (UniProt Q99062 25-836)
Test: SPR; BIAcore T200; G-CSF receptor immobilised on a CM5 chip at 2000 RU by amine coupling; pegfilgrastim injected at seven concentrations from 0.08 to 5 nM; 1:1 binding model; KD from kinetics; triplicates for each batch
Conditions: both partners purified

Chain of G-CSF receptor (Q99062 25-836): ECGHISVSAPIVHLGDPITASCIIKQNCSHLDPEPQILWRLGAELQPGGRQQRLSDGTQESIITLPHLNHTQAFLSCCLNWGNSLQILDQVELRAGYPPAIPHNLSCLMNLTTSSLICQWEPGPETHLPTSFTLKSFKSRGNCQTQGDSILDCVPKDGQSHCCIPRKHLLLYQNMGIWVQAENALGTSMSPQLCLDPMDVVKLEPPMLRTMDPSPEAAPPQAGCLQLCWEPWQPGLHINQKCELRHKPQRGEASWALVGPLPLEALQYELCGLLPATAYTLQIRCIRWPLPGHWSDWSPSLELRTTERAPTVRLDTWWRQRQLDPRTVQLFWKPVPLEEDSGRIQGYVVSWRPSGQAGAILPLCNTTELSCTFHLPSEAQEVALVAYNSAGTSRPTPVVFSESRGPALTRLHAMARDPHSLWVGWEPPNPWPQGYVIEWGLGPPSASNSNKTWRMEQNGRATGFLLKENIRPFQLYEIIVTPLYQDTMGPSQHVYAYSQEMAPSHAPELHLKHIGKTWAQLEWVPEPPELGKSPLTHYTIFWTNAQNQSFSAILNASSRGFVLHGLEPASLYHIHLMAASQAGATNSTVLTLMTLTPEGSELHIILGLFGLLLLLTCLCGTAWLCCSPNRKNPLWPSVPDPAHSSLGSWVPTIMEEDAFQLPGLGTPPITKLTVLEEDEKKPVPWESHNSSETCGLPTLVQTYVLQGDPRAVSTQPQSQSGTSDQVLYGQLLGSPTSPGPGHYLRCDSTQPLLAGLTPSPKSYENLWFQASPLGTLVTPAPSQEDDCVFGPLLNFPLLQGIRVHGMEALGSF

Kd: 51.2 to 118 pM
B1: Armlupeg (Lupin’s Pegfilgrastim) (ligand, human)
chain: MTPLGPASSLPQSFLLKCLEQVRKIQGDGAALQEKLCATYKLCHPEELVLLGHSLGIPWAPLSSCPSQALQLAGCLSQLHSGLFLYQGLLQALEGISPELGPTLDTLQLDVADFATTIWQQMEELGMAPALQPTQGAMPAFASAFQRRAGGVLVASHLQSFLEVSYRVLRHLAQP
modifications: 20 kDa monomethoxy polyethylene glycol (PEG) covalently bound to the N-terminal methionine residue
notes: N-terminal methionine residue of filgrastim, named in words; it carries the PEG; Filgrastim: recombinant human granulocyte colony-stimulating factor (G-CSF), 175 amino acids with the N-terminal methionine; 18 lots were used for SPR; also called proposed biosimilar; source: Armlupeg drug product lots (Lupin Limited)
